{"source": "patent US20110113865A1", "about": "“USING CARDIAC TROPONIN FOR MONITORING ANTI-ANGIOGENESIS THERAPY” (priority 2008, published 2011)", "key": {"NT-proBNP": {"system": "NT-proBNP", "conditions": "human, in vivo"}, "cardiovascular system": {"system": "cardiovascular system", "conditions": "human, in vivo", "method": "Three years later, advanced colorectal cancer is diagnosed necessitating a suitable cancer therapy. The left ventricular ejection fraction (LVEF) is determined by echocardiography (40%) indicating a minor systolic dysfunction. Moreover, the amounts of a troponin T (12 pg/ml) and NT-proBNP (510 pg/ml) are determined in a sample of the patient. The patient is subjected to a cardiac stress test showing that a region of the posterior myocardial wall has a dysfunctional contractility (reversible perfusion defects). Coronary angiography is carried out indicating 80% stenosis of the artery that supplies the region of dysfunctional contractility with blood. Two weeks after successful revascularization of the affected myocardial regions, troponin T (6 pg/ml) and NT-proBNP (180 pg/ml) are determined again. A therapy with VEGF-inhibitors is started; troponin T and NT-proBNP are measured monthly. During the therapy with VEGF-inhibitors the levels of these two biomarkers remain stable. Also, the therapy is effective indicated by a reduced tumor size as well as by reduced CEA levels (carcinoembryonic antigen). […] Examples are shown herein below."}, "[1]": {"system": "troponin T and/or NT-proBNP", "test": "Levels of troponin T and/or NT-proBNP before and during therapy in 27 patients", "assay_type": "in vivo, human", "excerpt": "Examples are shown herein below."}, "troponin T": {"system": "troponin T", "conditions": "human, in vivo"}, "[2]": {"system": "metastatic colorectal cancer", "conditions": "cited from earlier work"}, "[3]": {"conditions": "48 hours at room temperature or at 4° Celsius; cited from earlier work"}, "[4]": {"conditions": "Smith 2000; cited from earlier work"}, "acute coronary syndromes": {"system": "acute coronary syndromes", "conditions": "treated patients; Annals of Oncology 2007; cited from earlier work"}}}
{"molecule": "Bevacizumab: monoclonal antibody against the vascular endothelial growth factor (VEGF)", "values": [{"measurement": "NT-proBNP level", "setting": "NT-proBNP", "result": 1916, "unit": "pg/mL"}, {"measurement": "adverse side effects on the cardiovascular system", "setting": "cardiovascular system", "result": "no adverse side effects on the cardiovascular system"}, {"measurement": "patients in whom the levels of the markers remained unchanged (no significant increase)", "setting": "[1]; 27 patients, serum, before vs during therapy", "result": "more than 80%"}, {"measurement": "change of the measured markers (Troponin T and NT-proBNP)", "setting": "[1]; patient 4208, day 13 vs day 57 after therapy start", "result": "Significant increases"}, {"measurement": "change of troponin T during treatment", "setting": "troponin T", "result": "further increase of troponin T"}, {"measurement": "survival", "setting": "[2]", "result": "significantly improves survival"}]}
{"molecule": "BNP: Brain Natriuretic Peptide, active hormone, 32 amino acids", "values": [{"measurement": "concentration loss on storage", "setting": "[3]", "result": "at least 20%"}, {"measurement": "in-vivo half-life", "setting": "[4]", "result": 20, "unit": "min"}]}
{"molecule": "CNC(=O)c1cc(Oc2ccc(NC(=O)Nc3ccc(Cl)c(C(F)(F)F)c3)cc2)ccn1", "note": "[sorafenib]", "values": [{"measurement": "patients with induced acute coronary syndromes", "setting": "acute coronary syndromes", "result": 2.9, "unit": "%"}]}
{"molecule": "NT-proBNP: N-terminal pro peptide of proBNP, 76 amino acids (protein, UniProt P16860 27-102, looked up, NT-proBNP, N-terminal pro peptide of proBNP, 76 amino acids) NT-proBNP: HPLGSPGSASDLETSGLQEQRNHLQGKLSELQVEQTSLEPLQESPRPTGVWKSREVATEGIRGHRKMVLYTLRAPR", "values": [{"measurement": "in-vivo half-life", "setting": "[4]", "result": 120, "unit": "min"}]}
